Source: patent publication US20240325555A1 (LANOVA MEDICINES, published 2024)

Tests used:
cynomolgus LIV-1 [1] = biological target: T1, cynomolgus LIV-1 (cynomolgus, UniProt A0A2K5WH46 30-741); assay: FACS, cyno LIV-1 cells
Target sequence in this assay (A0A2K5WH46 entry or part of it): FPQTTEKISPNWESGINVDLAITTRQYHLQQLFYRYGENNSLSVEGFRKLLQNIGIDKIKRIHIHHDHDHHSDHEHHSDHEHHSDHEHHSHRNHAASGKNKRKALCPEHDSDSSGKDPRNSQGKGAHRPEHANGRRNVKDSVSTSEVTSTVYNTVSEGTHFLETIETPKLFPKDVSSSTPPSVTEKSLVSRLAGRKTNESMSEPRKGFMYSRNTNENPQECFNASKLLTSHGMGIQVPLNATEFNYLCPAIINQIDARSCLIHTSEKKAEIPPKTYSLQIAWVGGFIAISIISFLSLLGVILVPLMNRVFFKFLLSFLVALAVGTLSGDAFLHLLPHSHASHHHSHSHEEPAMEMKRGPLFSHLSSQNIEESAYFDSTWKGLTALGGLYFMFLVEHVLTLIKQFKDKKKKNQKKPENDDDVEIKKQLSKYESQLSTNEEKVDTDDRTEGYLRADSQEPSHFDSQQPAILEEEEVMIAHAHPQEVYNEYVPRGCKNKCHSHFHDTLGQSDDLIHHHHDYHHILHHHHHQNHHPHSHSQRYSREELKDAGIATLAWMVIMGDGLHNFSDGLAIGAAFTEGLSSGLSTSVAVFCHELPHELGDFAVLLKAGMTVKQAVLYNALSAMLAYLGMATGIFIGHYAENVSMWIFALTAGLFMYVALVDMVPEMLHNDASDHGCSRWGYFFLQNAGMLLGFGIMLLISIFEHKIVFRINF

human LIV-1 [2] = biological target: T2, human LIV-1 (human, UniProt Q13433 29-755); assay: FACS, human LIV-1 cells
T2 construct: whole, on cells; also called H-LIV1
T2 sequence (looked up): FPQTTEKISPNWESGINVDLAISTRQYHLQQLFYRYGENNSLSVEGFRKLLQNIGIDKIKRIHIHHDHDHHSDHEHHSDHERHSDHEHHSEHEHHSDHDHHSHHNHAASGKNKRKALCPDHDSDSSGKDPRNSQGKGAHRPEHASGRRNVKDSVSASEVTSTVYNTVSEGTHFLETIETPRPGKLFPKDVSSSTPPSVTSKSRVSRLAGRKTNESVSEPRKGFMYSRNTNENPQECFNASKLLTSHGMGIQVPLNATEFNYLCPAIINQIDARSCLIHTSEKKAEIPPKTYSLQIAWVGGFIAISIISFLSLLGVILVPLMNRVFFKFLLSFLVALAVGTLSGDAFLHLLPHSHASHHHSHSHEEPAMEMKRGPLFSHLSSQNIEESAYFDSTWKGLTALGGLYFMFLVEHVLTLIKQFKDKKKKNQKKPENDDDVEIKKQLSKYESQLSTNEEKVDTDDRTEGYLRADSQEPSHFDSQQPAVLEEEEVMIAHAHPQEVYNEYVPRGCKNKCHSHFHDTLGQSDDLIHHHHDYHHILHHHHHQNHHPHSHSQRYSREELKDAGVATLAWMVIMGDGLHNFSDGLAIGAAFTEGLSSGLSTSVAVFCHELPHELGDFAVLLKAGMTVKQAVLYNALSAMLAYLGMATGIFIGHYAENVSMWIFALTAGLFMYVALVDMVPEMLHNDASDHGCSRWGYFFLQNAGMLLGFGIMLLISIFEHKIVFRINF
Protocol: (§1) In this example, cell based binding of humanized antibodies (hu Abs) on human LIV-1-expressing cells were assessed using flow cytometry.
(§2) Cell based binding of hu-Abs on human LIV-1 expressing cells were assessed using flow cytometry. Briefly, the HEK293/H_LIV-1 cells were incubated with hu-Abs (from 100 nM, 6 folds dilution, 8 points). After incubation at 4° C. for 60 minutes, the cells were washed with FACS buffer twice, then stained with fluorescent conjugated secondary antibody at 4° C. for 30 minutes. After that the cells were washed twice and analyzed by flow cytometry.

human LIV-1 [3] = biological target: T2, human LIV-1; assay: FACS, HEK293/H_LIV-1 cells
Protocol: as §1, §2

cynomolgus LIV-1 [4] = biological target: T1, cynomolgus LIV-1; assay: FACS, HEK293/Cyno_LIV-1 cells
Target sequence in this assay (A0A2K5WH46 entry or part of it): as the sequence (A0A2K5WH46 entry or part of it) above

human LIV-1 [5] = biological target: T2, human LIV-1; assay: cell-based or functional assay
human LIV-1 [6] = biological target: T2, human LIV-1; assay: FACS, HEK293/H_LIV-1 cells; remark: listed apart in the source
Protocol: (§3) In this example, cell based binding of chimeric Abs on human and cyno LIV-1 over-expressing HEK 293 cells were assessed using flow cytometry.
(§4) Briefly, cells were incubated with chimeric Abs (from 100 nM, 5 folds dilution, 8 points). After incubation at 4° C. for 60 minutes, the cells were washed with 2% FBS/PBS buffer twice, then stained with fluorescent conjugated secondary antibody at 4° C. for 30 minutes. After that the cells were washed twice and resuspended in 80 μL of 2% FBS/PBS buffer. Fluorescent signal of binding was detected using Agilent. The EC50 was calculated using the GraphPad Software (LaJolla, CA).

cynomolgus LIV-1 [7] = biological target: T1, cynomolgus LIV-1; assay: FACS, HEK293/Cyno_LIV-1 cells; remark: listed apart in the source
Protocol: as §3, §4

human LIV-1 [8] = biological target: T2, human LIV-1; assay: cell-based or functional assay; remark: listed apart in the source

B1: 290F10G10.p1.Z5 (antibody, V domains shown)
VH: EVQLVQSGAEVKKPGASVKVSCKASGYTFTSYWIHWVRQAPGQGLEWMGTIYPGDADTRSTQKFKDRVTVTADKSTSTVYMELSSLRSEDTAVYYCARSLIHDDYDKYYFDYWGQGTTVTVSS
VL: DIQMTQSPSSLSASVGDRVTITCKARQDINKYIAWYQQKPGKAPKLLIHYTSILQPGIPSRFSGSGSGRDYTFTISSLQPEDIATYYCLQYDYFFTFGGGTKVEIK
EC50 (cynomolgus LIV-1 [1]): 0.5 nM
Top (MFI) (cynomolgus LIV-1 [1]): 7370 MFI
EC50 (human LIV-1 [2]): 0.32 nM
Top (MFI) (human LIV-1 [2]): 7390 MFI

B2: 290F10G10.p1.Z4 (antibody, V domains shown)
VH: EVQLVQSGAEVKKPGASVKVSCKASGYTFTSYWIHWVRQAPGQGLEWMGTIYPGDADTRSTQKFKDRVTVTADKSTSTVYMELSSLRSEDTAVYYCARSLIHDDYDKYYFDYWGQGTTVTVSS
VL: DIQMTQSPSSLSASVGDRVTITCKARQDINKYIAWYQQKPGKAPKLLIYYTSILQPGVPSRFSGSGSGRDYTFTISSLQPEDIATYYCLQYDYFFTFGGGTKVEIK
EC50 (cynomolgus LIV-1 [1]): 0.34 nM
Top (MFI) (cynomolgus LIV-1 [1]): 7140 MFI
EC50 (human LIV-1 [2]): 0.24 nM
Top (MFI) (human LIV-1 [2]): 7790 MFI

B3: 290F10G10.p1.Z7 (antibody, V domains shown)
VH: EVQLVQSGAEVKKPGASVKVSCKASGYTFTSYWIHWVRQAPGQGLEWIGTIYPGDADTRSTQKFKDKATVTADKSTSTVYMELSSLRSEDTAVYYCARSLIHDDYDKYYFDYWGQGTTVTVSS
VL: DIQMTQSPSSLSASVGDRVTITCKARQDINKYIAWYQQKPGKAPKLLIYYTSILQPGVPSRFSGSGSGRDYTFTISSLQPEDIATYYCLQYDYFFTFGGGTKVEIK
EC50 (cynomolgus LIV-1 [1]): 0.37 nM
Top (MFI) (cynomolgus LIV-1 [1]): 7150 MFI
EC50 (human LIV-1 [2]): 0.28 nM
Top (MFI) (human LIV-1 [2]): 7680 MFI

B4: 290F10G10.p1.Z1 (antibody, V domains shown)
VH: EVQLVQSGAEVKKPGASVKVSCKASGYTFTSYWIHWVRQAPGQGLEWMGTIYPGDADTRSTQKFKDRVTMTADTSTSTVYMELSSLRSEDTAVYYCARSLIHDDYDKYYFDYWGQGTTVTVSS
VL: DIQMTQSPSSLSASVGDRVTITCKARQDINKYIAWYQQKPGKAPKLLIYYTSILQPGVPSRFSGSGSGRDYTFTISSLQPEDIATYYCLQYDYFFTFGGGTKVEIK
EC50 (cynomolgus LIV-1 [1]): 0.85 nM
Top (MFI) (cynomolgus LIV-1 [1]): 7190 MFI
EC50 (human LIV-1 [2]): 0.56 nM
Top (MFI) (human LIV-1 [2]): 7540 MFI

B5: 290F10G10.p1.Z8 (antibody, V domains shown)
VH: EVQLVQSGAEVKKPGASVKVSCKASGYTFTSYWIHWVRQAPGQGLEWIGTIYPGDADTRSTQKFKDKATVTADKSTSTVYMELSSLRSEDTAVYYCARSLIHDDYDKYYFDYWGQGTTVTVSS
VL: DIQMTQSPSSLSASVGDRVTITCKARQDINKYIAWYQQKPGKAPKLLIHYTSILQPGIPSRFSGSGSGRDYTFTISSLQPEDIATYYCLQYDYFFTFGGGTKVEIK
EC50 (cynomolgus LIV-1 [1]): 0.36 nM
Top (MFI) (cynomolgus LIV-1 [1]): 7190 MFI
EC50 (human LIV-1 [2]): 0.27 nM
Top (MFI) (human LIV-1 [2]): 7540 MFI

B6: 290F10G10.p1.Z3 (antibody, V domains shown)
VH: EVQLVQSGAEVKKPGASVKVSCKASGYTFTSYWIHWVRQAPGQGLEWMGTIYPGDADTRSTQKFKDRVTMTADTSTSTVYMELSSLRSEDTAVYYCARSLIHDDYDKYYFDYWGQGTTVTVSS
VL: DIQMTQSPSSLSASVGDRVTITCKARQDINKYIAWYQHKPGKGPKLLIHYTSILQPGIPSRFSGSGSGRDYTFTISSLQPEDIATYYCLQYDYFFTFGGGTKVEIK
EC50 (cynomolgus LIV-1 [1]): 0.4 nM
Top (MFI) (cynomolgus LIV-1 [1]): 6750 MFI
EC50 (human LIV-1 [2]): 0.27 nM
Top (MFI) (human LIV-1 [2]): 7600 MFI

B7: 290F10G10.p1.Z6 (antibody, V domains shown)
VH: EVQLVQSGAEVKKPGASVKVSCKASGYTFTSYWIHWVRQAPGQGLEWMGTIYPGDADTRSTQKFKDRVTVTADKSTSTVYMELSSLRSEDTAVYYCARSLIHDDYDKYYFDYWGQGTTVTVSS
VL: DIQMTQSPSSLSASVGDRVTITCKARQDINKYIAWYQHKPGKGPKLLIHYTSILQPGIPSRFSGSGSGRDYTFTISSLQPEDIATYYCLQYDYFFTFGGGTKVEIK
EC50 (cynomolgus LIV-1 [1]): 0.46 nM
Top (MFI) (cynomolgus LIV-1 [1]): 6890 MFI
EC50 (human LIV-1 [2]): 0.35 nM
Top (MFI) (human LIV-1 [2]): 7420 MFI

B8: 124H4D11.p2.z13 (antibody, V domains shown)
VH: QVPLVQSGAEVVKPGASVKLSCKASGFNIKDYYMHWVKQAPGQGLEWIGWIDPENDDTEYDPKFQGRATMTADTSTSTAYLELSSLRSEDTAVYYCNARYYAFDYWGQGTTVTVSS
VL: DVLMTQSPSSLSVSVGDRATISCRSSQSIVHSNANTYLEWYLQKPGKSPKLLIYKVSNRFSGVPDRFSGSGSGTEFTLTISSVQPEDFGVYYCFQGSQVPPTFGGGTRLEIK
EC50 (human LIV-1 [3]): 7.48 nM
Top (MFI) (human LIV-1 [3]): 17000 MFI
Top (MFI) (cynomolgus LIV-1 [4]): 9030 MFI

B9: 50H12B3 (antibody, V domains shown)
VH: QVQLKQSGPGLVQPSQSLSITCTVSGFSLTSYGVHWVRQSPGKGLEWLGVIWTGGTTDYNAAFKSRLSISKDNSKSQVFFKMNSLQANDTAIYYCARGPSSYWGQGTLVTVSA
VL: DIVMTQSQKFMSTSVGDRVSVTCKASQNVDTNVVWYQQKPGQSPKALIHSTSYRYSGVPDRFTGSGSGTDFTLTISNVQSEDLAEYFCQQYNNYPWTFGGGTKLEIK
notes: Tested as chimeric antibody
ADCC reporter EC50 (human LIV-1 [5]): 0.2 nM
ADCC reporter Top (RFU) (human LIV-1 [5]): 95600 RFU
EC50 (human LIV-1 [6]): 0.23 nM
Top (MFI) (human LIV-1 [6]): 63000 MFI
EC50 (cynomolgus LIV-1 [7]): 0.21 nM
Top (MFI) (cynomolgus LIV-1 [7]): 35900 MFI

B10: 56B3E6 (antibody, V domains shown)
VH: EVQLQQSGAELVRSGASVKLSCTASGFNIKDYYIHWVKQRPEQGLEWIGWIDPENDDTEYAPKFQGKATMTADTSSNTAYLHLSSLTSEDTAVYYCPHGGGFRVFDSWGQGTTLTVSS
VL: DVLMTQTPLSLPVSLGDQASISCRSSQDIVHSNGNTYLEWYLQKPGQSPKLLIYKVSNRFSGVPDRFSGSGSGTDFTLKISRVEAEDLGVYYCFQGSHVPWTFGGGTKLEIK
notes: Tested as chimeric antibody
ADCC reporter EC50 (human LIV-1 [5]): 1.3 nM
ADCC reporter Top (RFU) (human LIV-1 [5]): 52300 RFU
Internalization EC50 (human LIV-1 [8]): 5 nM
Internalization Top (RFU) (human LIV-1 [8]): 388000 RFU
EC50 (human LIV-1 [6]): 0.13 nM
Top (MFI) (human LIV-1 [6]): 13300 MFI
EC50 (cynomolgus LIV-1 [7]): 0.21 nM
Top (MFI) (cynomolgus LIV-1 [7]): 9280 MFI

B11: 69B3D6 (antibody, V domains shown)
VH: QVQLQQSGPELVKPGASVRISCKASGYTFTSYHMHWVKQRPGQGLEWIGWIYPGNVKNQSNEKFKGKATLTADKSSSTAYMQLSSLTSEDSAVYFCARSDITRAFFAYWGQGTLVTVSA
VL: DVLMTQTPLSLPVSLGDQASISCRSSQSIVHSNGNTYLEWYLQKPGQSPKLLIYKVSNRFSGVPDRFSGSGSGTDFTLKISRVEAEDLGVYYCFQGSHVPYTFGGGTKLEIK
notes: Tested as chimeric antibody
ADCC reporter EC50 (human LIV-1 [5]): 25.3 nM
ADCC reporter Top (RFU) (human LIV-1 [5]): 47200 RFU
EC50 (human LIV-1 [6]): 0.18 nM
Top (MFI) (human LIV-1 [6]): 11500 MFI
EC50 (cynomolgus LIV-1 [7]): 0.17 nM
Top (MFI) (cynomolgus LIV-1 [7]): 6600 MFI

B12: 72B12F1 (antibody, V domains shown)
VH: EVQLQQSGAELVKPGASVKLSCTASGFNIKDTYMHWVKQRPEQGLEWIGRIDPANGNTKNDPRFQGKATITADTSSNTAYLQLSRLTSEDTAVYYCAGGGITTVVPDHWGQGTTLTVSS
VL: DVVMTQTPLSLPVSLGDQASISCRSSQSLVHSNGNTYLQWYLQKPGQSPKLLIYKVSNRFSGVPDRFSGSGSGTDFTLKISRVEAEDLGVYFCSQSTHVPYTFGGGTKLEIK
notes: Tested as chimeric antibody
Internalization EC50 (human LIV-1 [8]): 7.2 nM
Internalization Top (RFU) (human LIV-1 [8]): 353000 RFU
EC50 (human LIV-1 [6]): 0.79 nM
Top (MFI) (human LIV-1 [6]): 10700 MFI
EC50 (cynomolgus LIV-1 [7]): 0.36 nM
Top (MFI) (cynomolgus LIV-1 [7]): 7470 MFI
